We go through six molecules from patent US20080153161A1, “Genetically Encoded Photosensitizers and Methods for Using Same” (priority 2005, published 2008).

Series [1] concerns B16 melanoma cells. As to the kind of experiment: Phototoxicity of TMRM compared with mitochondrial KillerRed in B16 melanoma cells. Format: cell-based. The note with it: 100 nM, 3.3 W/cm2 green light. How it is done:
The phototoxicity of mitochondrial KillerRed was compared with the phototoxicity of tetramethylrhodamine (TMRM)—a red fluorescent dye capable of producing ROS which accumulates in mitochondria of living cells. B16 melanoma cells were preincubated with 100 nM TMRM for 20 min at 37° C. and irradiated by 3.3 W/cm2 green light (40× objective, 535-575 nm) for time periods of 10 sec, 1 min, 5 min, and longer. […] Irradiation for 1 min led to cell death within 30-40 min. The effect was similar to that obtained by 15-min irradiation of the KillerRed-expressing cells under the same conditions.

For series [2], the system named is beta-gal. The series is described as follows: Inhibitory analysis with specific ROS quenchers in the in vitro beta-gal CALI system. Particulars: superoxide dismutase 500 u/ml with catalase 500 u/ml; mannitol 67 mM; sodium azide 20 mM. Type of series: biochemical, E. coli. How it is done:
White and hatched columns show β-gal activity for the intact and irradiated samples, respectively.
The mechanism of the KillerRed-mediated effect was tested using inhibitory analysis. A specific ROS quenchers were added to the in vitro beta-gal CALI system described above (FIG. 6).

In series [3] the test system is B16 melanoma cells. The series is described as follows: Light-induced killing of B16 melanoma cells expressing mitochondrially targeted KillerRed. Type of series: cell-based. Particulars: pre-incubated with 10 μM inhibitor, 1.5 hour post illumination. From the text:
Mitochondrial localization of a photosensitizer is known to be effective in photodynamic therapy, leading preferentially to apoptotic cell death. To provide for a more pronounced phototoxic effect, KillerRed was targeted to mitochondria by cloning it in frame with a double N-terminal mitochondrial localization signal and the resulting construct was transiently transfected into B16 melanoma cells. Exposure of mitochondrially targeted KillerRed expressing B16 melanoma cells to green light for 15 minutes using lower irradiation intensity (40× objective, 535-575 nm excitation filter, 3.3 W/cm2) led to nearly 100% cell death within 45 min after irradiation (FIG. 8B). If pre-incubated with 10 μM pancaspase inhibitor zVAD-fmk, the cells survived identical irradiation and preserved their native shape within 1.5 hour post illumination. This indicates the apoptotic way of the mitochondrially targeted KillerRed-mediated cell death.

In series [4] the test system is E. coli (XL1-Blue strain). The series is described as follows: Screening of fluorescent and chromo-proteins for phototoxic effect in E. coli (CFU after white light). Format: cell-based. The note with it: for phototoxic effect: E. coli expressing the protein, white light 1 hour, CFU irradiated vs non-irradiated. An excerpt:
Looking for a GFP-like protein, which could be used as an efficient photosensitizer, we screened different proteins for a phototoxic effect in E. coli including: • (1) Anemonia majano fluorescent protein AmCyan (also noted to as FP486, GenBank ID AF168421; Clontech); • (2) Zoanthus sp. fluorescent protein ZsGreen FP506 (also noted to as FP506, GenBank ID AF168422; Clontech); • (3) red fluorescent protein DsRed2 (Clontech); • (4) Anemonia sulcata GFP-like chromoprotein asulCP FP595 (also noted to as FP595, GenBank ID AF246709); • (5) asulCPW94F protein, a mutant of chromoprotein FP595 comprising W94F amino acid substitution; • (6) commercially available red fluorescent protein AsRed2 (Clontech); • (7) Dendronephthya sp. green fluorescent protein dendGFP (GenBank ID AF420591); • (8) Goniopora tenuidens GFP-like chromoprotein, gtenCP (GenBank ID AF383156); • (9) aceGFP (GenBank ID AY233272); • (10) circularly permutated aceGFP (GenBank ID AY233272) variant, cpT1 having nucleotide and amino acid sequences shown in SEQ ID NOS: 5, 6.; • (11) monomeric mutant of dendGFP protein, dendQ4mono, having nucleotide and amino acid sequences shown in SEQ ID NOS: 7, 8.; • (12) EGFP, the most popular Aequorea GFP mutant variant (GenBank ID U55763); • (13) chromoprotein am2CP(PCT/RU03/00474; SEQ ID NOS: 9, 10); • (14) red fluorescent protein KillerRed (JR18IC+)(SEQ ID NOS: 3, 4), developed on the basis of chromoprotein am2CP by random mutagenesis; and • (15) non-colored mutant of FP506 protein, ZsGreenY66A, containing mutation Y66A which eliminates the chromophore, was used as a negative control.
Synthetic genes encoding proteins listed above were cloned into the pQE30 vector and transformed into E. coli (XL1-Blue strain). For each protein tested, protein expressing cells were taken from one E. coli colony, diluted into 1 ml of PBS buffer and divided into two portions. One of them was irradiated with white light (light source Fiber-Light from Dolan-Jenner Industries, Inc) for 1 hour. Then both samples aliquots were sowed to the Petri dishes at different dilutions. The number of growing colonies corresponded to the number of bacteria cells surviving after irradiation (i.e. colony forming units, CFU). The CFU number for the irradiated E. coli portion was compared to non-irradiated one, thus allowing an estimate of the relative phototoxic effect for every of the proteins tested.
Comparing to the wild type chromoprotein anm2CP, KillerRed contains amino acid changes T145N and C161A (corresponding to positions 148 and 165 in Aequorea victoria GFP), which are spatially close to the chromophore and affect fluorescent properties, and a number of folding mutations. […]

Series [5] has as its system 293T human kidney cells. As to the kind of experiment: Light-induced killing of 293T cells expressing KillerRed in cytoplasm. Type of series: cell-based. An excerpt:
For expression in eukaryotic cells, the PCR-amplified Agel-NotI fragments from pQE30 vectors encoding KillerRed and DsRed2 (obtained as described in the Example 1) were PCR amplified and inserted in lieu of the EGFP-coding region in the pEGFP-N1 vector (Clontech).
293T human kidney cells were transiently cotransfected with these vectors and the AcGFP1-C1 vector (Clontech) using Lipofectamine reagent (Invitrogen). The cells of interest were characterized with high expression levels of both green fluorescent protein AcGFP1 and KillerRed (or DsRed2 in a control experiment). Cells were irradiated with intense green light for 10 min (100× objective, 535-575 nm excitation filter, 5.8 W/cm2). Mortality of irradiated KillerRed expressing cells reached 40-60%, depending on protein concentration (FIG. 8A).
At the same time, neighboring cells with a lower KillerRed expression level survived irradiation, presumably due to the lower concentration of the phototoxic agent. […] A Leica confocal inverted microscope TCS SP2 equipped with 125 mW Ar and 1 mW HeNe lasers was used for cell imaging. A LaserCheck (Coherent) power meter was used to measure total power of the excitation light after the microscope objective.

In series [6] the target is beta-gal (Escherichia coli, UniProt P00722, DEL12-42). The note with it: beta-gal mixed with KillerRed (unfused), E. coli extracts.
beta-gal (Escherichia coli, UniProt P00722, DEL12-42), sequence (P00722 whole entry, stated change not applied, the tested form may be a part): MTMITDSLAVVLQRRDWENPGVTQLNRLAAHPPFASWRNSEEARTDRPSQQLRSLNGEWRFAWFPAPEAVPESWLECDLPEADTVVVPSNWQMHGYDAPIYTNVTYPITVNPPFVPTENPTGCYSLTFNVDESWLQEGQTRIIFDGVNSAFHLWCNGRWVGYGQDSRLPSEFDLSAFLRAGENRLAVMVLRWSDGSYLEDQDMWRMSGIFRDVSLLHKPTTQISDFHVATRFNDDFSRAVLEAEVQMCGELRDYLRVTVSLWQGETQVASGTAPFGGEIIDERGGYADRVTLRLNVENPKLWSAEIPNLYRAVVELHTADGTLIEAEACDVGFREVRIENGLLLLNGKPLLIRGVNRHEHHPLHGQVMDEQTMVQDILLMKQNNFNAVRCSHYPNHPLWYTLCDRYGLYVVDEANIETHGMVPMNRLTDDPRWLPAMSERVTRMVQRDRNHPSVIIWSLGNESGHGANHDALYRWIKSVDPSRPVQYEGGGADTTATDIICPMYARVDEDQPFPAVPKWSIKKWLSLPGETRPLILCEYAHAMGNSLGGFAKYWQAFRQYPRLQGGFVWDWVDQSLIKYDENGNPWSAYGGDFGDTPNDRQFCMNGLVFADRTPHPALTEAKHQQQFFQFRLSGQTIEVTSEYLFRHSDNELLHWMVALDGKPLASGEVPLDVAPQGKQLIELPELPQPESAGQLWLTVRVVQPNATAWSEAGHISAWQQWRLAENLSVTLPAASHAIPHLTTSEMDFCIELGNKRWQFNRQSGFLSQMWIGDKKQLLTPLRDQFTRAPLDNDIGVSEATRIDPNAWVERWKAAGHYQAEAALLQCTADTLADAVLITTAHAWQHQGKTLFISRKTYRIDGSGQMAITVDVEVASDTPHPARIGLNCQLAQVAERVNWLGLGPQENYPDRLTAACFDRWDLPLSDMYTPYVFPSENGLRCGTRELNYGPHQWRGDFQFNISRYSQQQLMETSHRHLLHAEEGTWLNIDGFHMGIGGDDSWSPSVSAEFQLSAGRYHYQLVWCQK
beta-gal (Escherichia coli, UniProt P00722, DEL12-42), sequence (P00722 with tags, fused parts or gaps DEL12-42): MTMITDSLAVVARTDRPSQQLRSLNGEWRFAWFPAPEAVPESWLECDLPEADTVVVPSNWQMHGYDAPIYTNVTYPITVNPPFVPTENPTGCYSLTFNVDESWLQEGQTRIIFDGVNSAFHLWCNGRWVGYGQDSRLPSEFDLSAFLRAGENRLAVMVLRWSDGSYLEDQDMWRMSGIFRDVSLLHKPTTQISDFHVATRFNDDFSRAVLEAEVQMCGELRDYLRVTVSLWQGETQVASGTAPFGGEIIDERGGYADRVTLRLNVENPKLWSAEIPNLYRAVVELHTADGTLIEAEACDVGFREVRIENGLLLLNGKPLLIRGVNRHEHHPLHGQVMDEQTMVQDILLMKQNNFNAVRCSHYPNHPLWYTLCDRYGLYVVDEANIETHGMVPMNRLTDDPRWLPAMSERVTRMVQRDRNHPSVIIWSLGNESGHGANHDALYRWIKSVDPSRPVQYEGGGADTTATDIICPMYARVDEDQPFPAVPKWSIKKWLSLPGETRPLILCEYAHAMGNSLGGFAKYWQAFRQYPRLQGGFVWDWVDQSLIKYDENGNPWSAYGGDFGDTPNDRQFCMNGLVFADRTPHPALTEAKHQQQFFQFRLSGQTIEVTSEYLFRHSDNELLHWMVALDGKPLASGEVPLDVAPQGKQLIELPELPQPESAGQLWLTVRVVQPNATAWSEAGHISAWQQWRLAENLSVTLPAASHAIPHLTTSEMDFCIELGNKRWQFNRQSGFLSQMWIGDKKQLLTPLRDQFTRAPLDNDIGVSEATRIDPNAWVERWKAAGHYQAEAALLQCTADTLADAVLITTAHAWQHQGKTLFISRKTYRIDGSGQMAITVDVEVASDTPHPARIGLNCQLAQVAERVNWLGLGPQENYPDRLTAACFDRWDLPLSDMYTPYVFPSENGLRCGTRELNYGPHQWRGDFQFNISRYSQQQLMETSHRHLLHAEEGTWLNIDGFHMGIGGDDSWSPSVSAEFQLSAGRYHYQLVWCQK
Protocol: O-nitrophenyl (ONP) absorption after 15 min o-nitrophenyl-D galactoside (ONPG) incubation is proportional to β-gal enzymatic activity.
Aliquots were either incubated under white light (1 W/cm2, light source Fiber-Light from Dolan-Jenner Industries, Inc) or kept in the dark. The entire volume of the tube was illuminated. Beta-gal activity was assayed in light-illuminated and “dark” aliquots calorimetrically.
Series [7] has as its system E. coli. The series is described as follows: Action spectrum of KillerRed phototoxic effect (green vs blue light). Format: cell-based. An excerpt:
FIG. 3 illustrates excitation (dotted line) and emission (solid line) spectra for KillerRed protein. Hatched and white rectangles show relative phototoxic effect from irradiation with blue (460-490 nm) and green (540-580 nm) light, respectively. Numbers above the rectangles represent the decrease in the number of viable cells after 10-min irradiation (folds).
Further we roughly checked the action spectrum for KillerRed phototoxic effect (FIG. 3).

The subject of series [8] is E. coli (XL1-Blue strain). As to the kind of experiment: Time course of survival of E. coli expressing fluorescent proteins under white light. Type of series: cell-based. The protocol:
To compare the KillerRed phototoxic effect with the effect of DsRed2 fluorescent protein, pQE30 vectors encoding KillerRed, DsRed2 or ZsGreenY66A non-colored protein were prepared as described in Example 1. E. coli (XL1-Blue strain) were transformed with said pQE30 vectors. The cells expressing ZsGreenY66A was used as a negative control. We estimated the percent of cells surviving after bacteria irradiation for 5, 10, 20, 40 and 60 minutes. […] The graph of FIG. 2 indicates the number of colonies, which grew without irradiation and after irradiation for the corresponding period of time.

Series [9] has as its target T1, pleckstrin homology (PH) domain of phospholipase C delta-1 (PLC delta-1) (Homo sapiens, UniProt P51178).
T1 sequence (P51178 1-224): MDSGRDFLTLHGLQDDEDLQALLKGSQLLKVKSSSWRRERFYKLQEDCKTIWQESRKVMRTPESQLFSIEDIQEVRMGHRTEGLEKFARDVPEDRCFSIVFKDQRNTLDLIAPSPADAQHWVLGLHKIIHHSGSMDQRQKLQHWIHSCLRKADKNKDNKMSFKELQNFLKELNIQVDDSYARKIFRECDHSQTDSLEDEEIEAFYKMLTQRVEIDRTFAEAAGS
As to the kind of experiment: KillerRed-mediated CALI of PH domain in mammalian cells (membrane to cytoplasm translocation). The note with it: KillerRed expressed separately from the PH domain, in membrane or cytosol.
Description: KillerRed-mediated CALI was further tested in mammalian cells (FIG. 7). The pleckstrin homology (PH) domain of phospholipase C delta-1 (PLC delta-1) was used as a model protein. The PH domain locates to the inner leaf of plasma membrane due to its high affinity for membrane phospholipids. It has been shown that in case of direct protein inactivation by dye-generated ROS, the PH domain will lose its membrane affinity and become evenly distributed throughout the cell volume.
A coding sequence for the first 224 amino acids of PLC delta-1 comprising the N-terminal PH-domain was amplified from Fetus Brain cDNA (Clontech) with specific PCR primers. […] Primers used comprised certain restriction sites that were used for following cloning of PCR products into pEGFP-Tub plasmid (Clontech) in frame with EGFP. As a result, a PH domain fusion with EGFP and triple fusions EGFP-PH-KillerRed and EGFP-PH-DsRed-Express operatively linked with CMV promoter were obtained.
The 293T cell-derived Phoenix Eco cell line was transiently transfected with these constructs. Intracellular localization of PLC delta-1 was evaluated using EGFP signal before and after CALI of the PH domain using confocal and fluorescence microscopy. Fluorescence was monitored using a Leica Confocal Microscope DM IRE2 TCS SP2. […]

“Also recorded” adds a separate entry of the source. Where a SMILES comes first, the peptide text is derived from it. The star is where a group is joined. Cbz = O=C(OCc1ccccc1)*; CH2F = FC*

For `CN(C)c1ccc2c(-c3ccccc3C(=O)[O-])c3ccc(N(C)C)cc3[o+]c2c1` [TMRM, tetramethylrhodamine], the cell death result in [1] (irradiation for 10 sec, within 1.5 h interval) is “didn't lead to TMRM-loaded cells' death”; in series [1] (irradiation for 5 minutes or longer) it was “immediate cell death”. The “time to cell death” value in [1] (irradiation for 1 min) lay in the range of 30 to 40 min.

Regarding superoxide dismutase, the “effect of quencher on CALI of beta-gal” value in series [2] is given as “impeded CALI slightly”.

Regarding `COC(=O)C[C@H](NC(=O)[C@H](C)NC(=O)[C@@H](NC(=O)OCc1ccccc1)C(C)C)C(=O)CF` [zVAD-fmk] (Cbz-Val-Ala-Asp(OMe)-CH2F), in [3], the “cell survival after identical irradiation” value was “survived”.

B1: S3-2 (protein)
chain: EGGPALFQSDMTFKIFIDGVVNGQKFTIVADGSSKFPHGDFNVHAVCETGKLPMSWKPICHLIQYGEPFFARYPNGISHFAQECFPEGLSIDRTVRFENDGTMTSHHTYELDGTCVVSRITVNCDGFQPDGPIMRDQLVDILPNETHMFPHGPNAVRQLAFIGFTTADGGLMMSHFDSKMTFNGSRAIKIPGPHFVTTITKQMKDTSDKRDHVCQREVTYAHSVPRITSAI
modifications: amino acid sequence for the red fluorescent protein S3-2
On to B1, for which the phototoxic effect result in series [4] is on record as “phototoxic”.

B2: anm2CP: wild type Anthomedusae chromoprotein (SEQ ID NOs: 9 and 10) (protein)
chain: MEGGPALFQSDMTFKIFIDGVVNDQKFTIIADGSSKFPHGDFNVHAVCETGKLPMSWKPICHLIQYGEPFFAKYPNGISHFAQECFPEGLTIDRTVRFENDGTMTSHHTYELDGTCVISRITVNCDGFQPDGPIMKDQLVDILPTETHMFPHGSNAVRQLCYIGFTTADGGLMMSHFDSKLTFNGSRAIKIPGPHFVTVIIKQMKDTSDKRDHVCQREVTYAHSVPRITSAI
modifications: hydromedusa 2 from sub-order Anthomedusae
Regarding B2, in series [4], the phototoxic effect entry was “not phototoxic”.

B3: KillerRed: red fluorescent protein (SEQ ID NO: 4), developed from chromoprotein anm2CP by random mutagenesis; genetically encoded photosensitizer (protein)
chain: EGGPALFQSDMTFKIFIDGEVNGQKFTIVADGSSKFPHGDFNVHAVCETGKLPMSWKPICHLIQYGEPFFARYPNGISHFAQECFPEGLSIDRTVRFENDGTMTSHHTYELDDTCVVSRITVNCDGFQPDGPIMRDQLVDILPNETHMFPHGPDAVRQLAFIGFTTADGGLMMGHFDSKMTFNGSRAIEIPGPHFVTIITKQMRDTSDKRDHVCQREVAYAHSVPRITSAIGSDED
modifications: amino acid sequence for the red fluorescent protein JR18IC+
notes: genetically encoded photosensitizer
Take B3: the “Mortality of irradiated cells” value in series [5] (green light 10 min, 535-575 nm, 5.8 W/cm2, depending on protein concentration) was 40-60%. Moreover, the “fate of irradiated cell” value in series [5] (highly expressing cell, post irradiation with green light 10 min) is “disintegrated within an hour and a half”. Moreover, the “effect of irradiation on enzyme activity” value in series [6] was “no effect”. The cell killing effect result in [7] (blue light irradiation (FITC filter set)) is reported as “weak effect”; in [7] (green light irradiation (TRITC filter set)), “strong cell killing effect”. For the same molecule, the figures for the cells killed in [8] (after 10 minutes of irradiation with white light) and in series [8] (after 20 minutes of irradiation with white light) were 96% and roughly 100%, respectively. Besides, the “CALI of the PH domain” value in series [9] is reported as “no detectable CALI”. Further, the phototoxic effect result in [4] is given as “striking phototoxic effect; also recorded: most strongly expressed”. In series [4] (after 1 hour irradiation with white light), this molecule registered a bacteria killed of 99.95%.
